Measured values taken from patent publication US8685665 (CHEMO SERO THERAPEUTIC RESEARCH INSTITUTE, dated 2014).

T1: FRETS-VWF73, P04275
T1 chain: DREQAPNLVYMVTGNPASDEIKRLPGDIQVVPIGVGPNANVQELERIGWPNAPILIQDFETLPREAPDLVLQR


Columns and labels:
[1] = biological target: T2, von Willebrand factor derived from human plasma (human, UniProt P04275 764-2813); assay: ELISA, plasma VWF immobilized on plate, relative to wild type W688X
T2 construct: mature; also called VWF; natural substrate VWF
Method: Each of the purified mutants of Example 3 was evaluated for their binding ability to VWF derived from human plasma immobilized on ELISA plate as described in Non-patent reference 8. The concentration was normalized by sandwich ELISA using the anti-human ADAMTS-13 rabbit polyclonal antibody and an HRP labeled form of the anti-FLAGM2 murine monoclonal antibody (SIGMA CORPORATION) as described above and the VWF binding ability per unit concentration was quantified. Finally, the mutants were evaluated for a relative activity as compared to the specific activity of wild type W688X with no alanine substitution, the specific activity of which is 1.

[2] = biological target: T1, FRETS-VWF73, P04275

| Binder | binding result [1] | cleaving activity to FRETS-VWF73, relative activity against wild type W688X [2] |
| --- | --- | --- |
| ADAMTS-13W688X mutant D343A (enzyme, human, UniProt Q76LX8 75-688, looked up, Disintegrin-like domain mutant; also called D343(10); not shown: C-terminal FLAG tag) AAGGILHLELLVAVGPDVFQAHQEDTERYVLTNLNIGAELLRDPSLGAQFRVHLVKMVILTEPEGAPNITANLTSSLLSVCGWSQTINPEDDTDPGHADLVLYITRFDLELPDGNRQVRGVTQLGGACSPTWSCLITEDTGFDLGVTIAHEIGHSFGLEHDGAPGSGCGPSGHVMASDGAAPRAGLAWSPCSRRQLLSLLSAGRARCVWDPPRPQPGSAGHPPDAQPGLYYSANEQCRVAFGPKAVACTFAREHLDMCQALSCHTDPLAQSSCSRLLVPLLDGTECGVEKWCSKGRCRSLVELTPIAAVHGRWSSWGPRSPCSRSCGGGVVTRRRQCNNPRPAFGGRACVGADLQAEMCNTQACEKTQLEFMSQQCARTDGQPLRSSPGGASFYHWGAAVPHSQGDALCRHMCRAIGESFIMKRGDSFLDGTRCMPSGPREDGTLSLCVSGSCRTFGCDGRMDSQQVWDRCQVCGGDNSTCSPRKGSFTAGRAREYVTFLTVTPNLTSVYIANHRPLFTHLAVRIGGRYVVAGKMSISPNTTYPSLLEDGRVEYRVALTEDRLPRLEEIRIWGPLQEDADIQVYRRYGEEYGNLTRPDITFTYFQPKPRQAWVW | binds | – |
| ADAMTS-13W688X mutant R568A (protein) AAGGILHLELLVAVGPDVFQAHQEDTERYVLTNLNIGAELLRDPSLGAQFRVHLVKMVILTEPEGAPNITANLTSSLLSVCGWSQTINPEDDTDPGHADLVLYITRFDLELPDGNRQVRGVTQLGGACSPTWSCLITEDTGFDLGVTIAHEIGHSFGLEHDGAPGSGCGPSGHVMASDGAAPRAGLAWSPCSRRQLLSLLSAGRARCVWDPPRPQPGSAGHPPDAQPGLYYSANEQCRVAFGPKAVACTFAREHLDMCQALSCHTDPLDQSSCSRLLVPLLDGTECGVEKWCSKGRCRSLVELTPIAAVHGRWSSWGPRSPCSRSCGGGVVTRRRQCNNPRPAFGGRACVGADLQAEMCNTQACEKTQLEFMSQQCARTDGQPLRSSPGGASFYHWGAAVPHSQGDALCRHMCRAIGESFIMKRGDSFLDGTRCMPSGPREDGTLSLCVSGSCRTFGCDGRMDSQQVWDRCQVCGGDNSTCSPRKGSFTAGRAAEYVTFLTVTPNLTSVYIANHRPLFTHLAVRIGGRYVVAGKMSISPNTTYPSLLEDGRVEYRVALTEDRLPRLEEIRIWGPLQEDADIQVYRRYGEEYGNLTRPDITFTYFQPKPRQAWVW | – | the elevated enzymatic activity was observed |
| ADAMTS-13W688X mutant R659A (protein) AAGGILHLELLVAVGPDVFQAHQEDTERYVLTNLNIGAELLRDPSLGAQFRVHLVKMVILTEPEGAPNITANLTSSLLSVCGWSQTINPEDDTDPGHADLVLYITRFDLELPDGNRQVRGVTQLGGACSPTWSCLITEDTGFDLGVTIAHEIGHSFGLEHDGAPGSGCGPSGHVMASDGAAPRAGLAWSPCSRRQLLSLLSAGRARCVWDPPRPQPGSAGHPPDAQPGLYYSANEQCRVAFGPKAVACTFAREHLDMCQALSCHTDPLDQSSCSRLLVPLLDGTECGVEKWCSKGRCRSLVELTPIAAVHGRWSSWGPRSPCSRSCGGGVVTRRRQCNNPRPAFGGRACVGADLQAEMCNTQACEKTQLEFMSQQCARTDGQPLRSSPGGASFYHWGAAVPHSQGDALCRHMCRAIGESFIMKRGDSFLDGTRCMPSGPREDGTLSLCVSGSCRTFGCDGRMDSQQVWDRCQVCGGDNSTCSPRKGSFTAGRAREYVTFLTVTPNLTSVYIANHRPLFTHLAVRIGGRYVVAGKMSISPNTTYPSLLEDGRVEYRVALTEDRLPRLEEIRIWGPLQEDADIQVYARYGEEYGNLTRPDITFTYFQPKPRQAWVW | – | the elevated enzymatic activity was observed |
| ADAMTS-13W688X mutant R370A (protein) AAGGILHLELLVAVGPDVFQAHQEDTERYVLTNLNIGAELLRDPSLGAQFRVHLVKMVILTEPEGAPNITANLTSSLLSVCGWSQTINPEDDTDPGHADLVLYITRFDLELPDGNRQVRGVTQLGGACSPTWSCLITEDTGFDLGVTIAHEIGHSFGLEHDGAPGSGCGPSGHVMASDGAAPRAGLAWSPCSRRQLLSLLSAGRARCVWDPPRPQPGSAGHPPDAQPGLYYSANEQCRVAFGPKAVACTFAREHLDMCQALSCHTDPLDQSSCSRLLVPLLDGTECGVEKWCSKGACRSLVELTPIAAVHGRWSSWGPRSPCSRSCGGGVVTRRRQCNNPRPAFGGRACVGADLQAEMCNTQACEKTQLEFMSQQCARTDGQPLRSSPGGASFYHWGAAVPHSQGDALCRHMCRAIGESFIMKRGDSFLDGTRCMPSGPREDGTLSLCVSGSCRTFGCDGRMDSQQVWDRCQVCGGDNSTCSPRKGSFTAGRAREYVTFLTVTPNLTSVYIANHRPLFTHLAVRIGGRYVVAGKMSISPNTTYPSLLEDGRVEYRVALTEDRLPRLEEIRIWGPLQEDADIQVYRRYGEEYGNLTRPDITFTYFQPKPRQAWVW | – | the elevated enzymatic activity was observed |
| ADAMTS-13W688X mutant R326A (protein) AAGGILHLELLVAVGPDVFQAHQEDTERYVLTNLNIGAELLRDPSLGAQFRVHLVKMVILTEPEGAPNITANLTSSLLSVCGWSQTINPEDDTDPGHADLVLYITRFDLELPDGNRQVRGVTQLGGACSPTWSCLITEDTGFDLGVTIAHEIGHSFGLEHDGAPGSGCGPSGHVMASDGAAPRAGLAWSPCSRRQLLSLLSAGRARCVWDPPRPQPGSAGHPPDAQPGLYYSANEQCRVAFGPKAVACTFAAEHLDMCQALSCHTDPLDQSSCSRLLVPLLDGTECGVEKWCSKGRCRSLVELTPIAAVHGRWSSWGPRSPCSRSCGGGVVTRRRQCNNPRPAFGGRACVGADLQAEMCNTQACEKTQLEFMSQQCARTDGQPLRSSPGGASFYHWGAAVPHSQGDALCRHMCRAIGESFIMKRGDSFLDGTRCMPSGPREDGTLSLCVSGSCRTFGCDGRMDSQQVWDRCQVCGGDNSTCSPRKGSFTAGRAREYVTFLTVTPNLTSVYIANHRPLFTHLAVRIGGRYVVAGKMSISPNTTYPSLLEDGRVEYRVALTEDRLPRLEEIRIWGPLQEDADIQVYRRYGEEYGNLTRPDITFTYFQPKPRQAWVW | – | the elevated enzymatic activity was observed |
| ADAMTS-13W688X mutant R488A (enzyme, human, UniProt Q76LX8 75-688, looked up, Cysteine-rich domain mutant; also called R488(26); not shown: C-terminal FLAG tag) AAGGILHLELLVAVGPDVFQAHQEDTERYVLTNLNIGAELLRDPSLGAQFRVHLVKMVILTEPEGAPNITANLTSSLLSVCGWSQTINPEDDTDPGHADLVLYITRFDLELPDGNRQVRGVTQLGGACSPTWSCLITEDTGFDLGVTIAHEIGHSFGLEHDGAPGSGCGPSGHVMASDGAAPRAGLAWSPCSRRQLLSLLSAGRARCVWDPPRPQPGSAGHPPDAQPGLYYSANEQCRVAFGPKAVACTFAREHLDMCQALSCHTDPLDQSSCSRLLVPLLDGTECGVEKWCSKGRCRSLVELTPIAAVHGRWSSWGPRSPCSRSCGGGVVTRRRQCNNPRPAFGGRACVGADLQAEMCNTQACEKTQLEFMSQQCARTDGQPLRSSPGGASFYHWGAAVPHSQGDALCRHMCAAIGESFIMKRGDSFLDGTRCMPSGPREDGTLSLCVSGSCRTFGCDGRMDSQQVWDRCQVCGGDNSTCSPRKGSFTAGRAREYVTFLTVTPNLTSVYIANHRPLFTHLAVRIGGRYVVAGKMSISPNTTYPSLLEDGRVEYRVALTEDRLPRLEEIRIWGPLQEDADIQVYRRYGEEYGNLTRPDITFTYFQPKPRQAWVW | binds | – |
| ADAMTS-13W688X mutant R660A (enzyme, human, UniProt Q76LX8 75-688, looked up, Spacer domain mutant; also called R660(68); not shown: C-terminal FLAG tag) AAGGILHLELLVAVGPDVFQAHQEDTERYVLTNLNIGAELLRDPSLGAQFRVHLVKMVILTEPEGAPNITANLTSSLLSVCGWSQTINPEDDTDPGHADLVLYITRFDLELPDGNRQVRGVTQLGGACSPTWSCLITEDTGFDLGVTIAHEIGHSFGLEHDGAPGSGCGPSGHVMASDGAAPRAGLAWSPCSRRQLLSLLSAGRARCVWDPPRPQPGSAGHPPDAQPGLYYSANEQCRVAFGPKAVACTFAREHLDMCQALSCHTDPLDQSSCSRLLVPLLDGTECGVEKWCSKGRCRSLVELTPIAAVHGRWSSWGPRSPCSRSCGGGVVTRRRQCNNPRPAFGGRACVGADLQAEMCNTQACEKTQLEFMSQQCARTDGQPLRSSPGGASFYHWGAAVPHSQGDALCRHMCRAIGESFIMKRGDSFLDGTRCMPSGPREDGTLSLCVSGSCRTFGCDGRMDSQQVWDRCQVCGGDNSTCSPRKGSFTAGRAREYVTFLTVTPNLTSVYIANHRPLFTHLAVRIGGRYVVAGKMSISPNTTYPSLLEDGRVEYRVALTEDRLPRLEEIRIWGPLQEDADIQVYRAYGEEYGNLTRPDITFTYFQPKPRQAWVW | binds | – |
| ADAMTS-13W688X mutant E327A (enzyme, human, UniProt Q76LX8 75-688, looked up, Disintegrin-like domain mutant; also called E327(7); E327 mutant; not shown: C-terminal FLAG tag) AAGGILHLELLVAVGPDVFQAHQEDTERYVLTNLNIGAELLRDPSLGAQFRVHLVKMVILTEPEGAPNITANLTSSLLSVCGWSQTINPEDDTDPGHADLVLYITRFDLELPDGNRQVRGVTQLGGACSPTWSCLITEDTGFDLGVTIAHEIGHSFGLEHDGAPGSGCGPSGHVMASDGAAPRAGLAWSPCSRRQLLSLLSAGRARCVWDPPRPQPGSAGHPPDAQPGLYYSANEQCRVAFGPKAVACTFARAHLDMCQALSCHTDPLDQSSCSRLLVPLLDGTECGVEKWCSKGRCRSLVELTPIAAVHGRWSSWGPRSPCSRSCGGGVVTRRRQCNNPRPAFGGRACVGADLQAEMCNTQACEKTQLEFMSQQCARTDGQPLRSSPGGASFYHWGAAVPHSQGDALCRHMCRAIGESFIMKRGDSFLDGTRCMPSGPREDGTLSLCVSGSCRTFGCDGRMDSQQVWDRCQVCGGDNSTCSPRKGSFTAGRAREYVTFLTVTPNLTSVYIANHRPLFTHLAVRIGGRYVVAGKMSISPNTTYPSLLEDGRVEYRVALTEDRLPRLEEIRIWGPLQEDADIQVYRRYGEEYGNLTRPDITFTYFQPKPRQAWVW | binds | – |
| ADAMTS-13W688X mutant D480A (enzyme, human, UniProt Q76LX8 75-688, looked up, Cysteine-rich domain mutant; also called D480(24); not shown: C-terminal FLAG tag) AAGGILHLELLVAVGPDVFQAHQEDTERYVLTNLNIGAELLRDPSLGAQFRVHLVKMVILTEPEGAPNITANLTSSLLSVCGWSQTINPEDDTDPGHADLVLYITRFDLELPDGNRQVRGVTQLGGACSPTWSCLITEDTGFDLGVTIAHEIGHSFGLEHDGAPGSGCGPSGHVMASDGAAPRAGLAWSPCSRRQLLSLLSAGRARCVWDPPRPQPGSAGHPPDAQPGLYYSANEQCRVAFGPKAVACTFAREHLDMCQALSCHTDPLDQSSCSRLLVPLLDGTECGVEKWCSKGRCRSLVELTPIAAVHGRWSSWGPRSPCSRSCGGGVVTRRRQCNNPRPAFGGRACVGADLQAEMCNTQACEKTQLEFMSQQCARTDGQPLRSSPGGASFYHWGAAVPHSQGAALCRHMCRAIGESFIMKRGDSFLDGTRCMPSGPREDGTLSLCVSGSCRTFGCDGRMDSQQVWDRCQVCGGDNSTCSPRKGSFTAGRAREYVTFLTVTPNLTSVYIANHRPLFTHLAVRIGGRYVVAGKMSISPNTTYPSLLEDGRVEYRVALTEDRLPRLEEIRIWGPLQEDADIQVYRRYGEEYGNLTRPDITFTYFQPKPRQAWVW | binds | – |
